Consider two molecules from patent publication US20150299277A1 (UNIVERSITY OF TOKYO, published 2015).

Experiment [1] concerns the target T1, Myc- and His-tagged full-length human PTX3 (human, UniProt P26022 18-381).
T1 construct: also called full-length PTX3; Myc-tagged full-length PTX3; not shown: Myc and His tags of the pEF4/Myc-His B vector
Description: dot blot: fragments on nitrocellulose, PTX3 overlay, anti-myc detection (FIG. 12A left).

Experiment [2] has as its target T2, Myc- and His-tagged C-terminal domain human PTX3 (animal cell expressed) (human, UniProt P26022 179-381).
T2 construct: also called C-terminal domain of PTX3; C-terminal fragment of PTX3; not shown: Myc and His tags of the pEF4/Myc-His B vector
T2 sequence: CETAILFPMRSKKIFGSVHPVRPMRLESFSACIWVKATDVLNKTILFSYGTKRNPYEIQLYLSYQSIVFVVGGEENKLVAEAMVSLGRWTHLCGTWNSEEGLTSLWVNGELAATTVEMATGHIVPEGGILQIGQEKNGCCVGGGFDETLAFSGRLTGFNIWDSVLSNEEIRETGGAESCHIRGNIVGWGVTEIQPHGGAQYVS
Described as above.

As to LVGLFEDTNLCAIHAKRVTI [histone H3 fragment H3-11], the binding result in experiment [1] and in experiment [2] was “binds” in each case. With EIRRYQKSTELLIRKLPFQR [histone H3 fragment H3-6], the binding result in experiment [1] is given as “binds”.
